T1: biotinylated recombinant human IL-12Rβ2 (human, UniProt Q99665 24-622, random biotinylated)
T1 construct: Recombinant protein produced in-house; also called hIL-12RB2; human IL-12RB2
T1 sequence: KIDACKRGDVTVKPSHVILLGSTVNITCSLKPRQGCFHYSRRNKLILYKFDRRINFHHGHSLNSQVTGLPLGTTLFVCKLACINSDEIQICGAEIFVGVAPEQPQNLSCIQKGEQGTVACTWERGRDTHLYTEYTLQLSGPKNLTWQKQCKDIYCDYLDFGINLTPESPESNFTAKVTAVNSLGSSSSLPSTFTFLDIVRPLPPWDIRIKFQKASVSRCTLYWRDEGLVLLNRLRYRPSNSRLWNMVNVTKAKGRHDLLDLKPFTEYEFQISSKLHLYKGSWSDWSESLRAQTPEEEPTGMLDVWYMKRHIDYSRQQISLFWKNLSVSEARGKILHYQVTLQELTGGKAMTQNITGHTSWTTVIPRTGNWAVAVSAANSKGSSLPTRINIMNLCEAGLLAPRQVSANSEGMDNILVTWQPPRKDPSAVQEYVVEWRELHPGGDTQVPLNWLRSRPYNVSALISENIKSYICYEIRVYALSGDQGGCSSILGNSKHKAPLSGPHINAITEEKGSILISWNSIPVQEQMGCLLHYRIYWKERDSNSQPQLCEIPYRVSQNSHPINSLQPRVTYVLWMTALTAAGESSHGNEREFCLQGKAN

T2: biotinylated recombinant mouse IL-12Rβ2 (mouse, UniProt P97378 24-637, random biotinylated)
T2 construct: Recombinant protein produced in-house; also called mIL-12RB2; mouse IL-12RB2
T2 sequence: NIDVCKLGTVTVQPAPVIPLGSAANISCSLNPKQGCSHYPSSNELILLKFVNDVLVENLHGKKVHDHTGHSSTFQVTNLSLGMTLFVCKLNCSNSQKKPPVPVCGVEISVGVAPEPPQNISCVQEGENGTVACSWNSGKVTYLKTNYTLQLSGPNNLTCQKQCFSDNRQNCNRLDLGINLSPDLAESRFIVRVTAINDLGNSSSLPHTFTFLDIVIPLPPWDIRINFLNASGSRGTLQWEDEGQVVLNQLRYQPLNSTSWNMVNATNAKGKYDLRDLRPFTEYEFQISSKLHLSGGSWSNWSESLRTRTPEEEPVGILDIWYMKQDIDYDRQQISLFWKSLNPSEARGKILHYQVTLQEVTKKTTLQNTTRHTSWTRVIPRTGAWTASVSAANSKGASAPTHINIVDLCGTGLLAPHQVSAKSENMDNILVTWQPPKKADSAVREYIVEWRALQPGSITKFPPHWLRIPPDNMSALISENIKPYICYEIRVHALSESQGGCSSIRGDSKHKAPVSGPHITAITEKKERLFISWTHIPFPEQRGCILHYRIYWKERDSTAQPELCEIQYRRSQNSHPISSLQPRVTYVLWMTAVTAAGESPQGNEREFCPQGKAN

T3: biotinylated human recombinant IL-12Rβ2 (produced in-house) (human, UniProt Q99665 24-622, random biotinylated)
T3 construct: Soluble recombinant protein used for panning, ELISA and BLI; also called hIL-12RB2; hIL12RB2
T3 sequence: T1 sequence

T4: biotinylated mouse recombinant IL-12Rβ2 (produced in-house) (mouse, UniProt P97378 24-637, random biotinylated)
T4 construct: Soluble recombinant protein used for panning, ELISA and BLI; also called mIL-12RB2; mIL12RB2
T4 sequence: T2 sequence

T5: human IL-12Rβ2 expressed on cells (human, UniProt Q99665 24-862)
T5 construct: the cell lines are described by plasmid or cDNA number only; also called hIL-12RB2; HEK293T transiently transfected with human IL-12Rβ2
T5 sequence: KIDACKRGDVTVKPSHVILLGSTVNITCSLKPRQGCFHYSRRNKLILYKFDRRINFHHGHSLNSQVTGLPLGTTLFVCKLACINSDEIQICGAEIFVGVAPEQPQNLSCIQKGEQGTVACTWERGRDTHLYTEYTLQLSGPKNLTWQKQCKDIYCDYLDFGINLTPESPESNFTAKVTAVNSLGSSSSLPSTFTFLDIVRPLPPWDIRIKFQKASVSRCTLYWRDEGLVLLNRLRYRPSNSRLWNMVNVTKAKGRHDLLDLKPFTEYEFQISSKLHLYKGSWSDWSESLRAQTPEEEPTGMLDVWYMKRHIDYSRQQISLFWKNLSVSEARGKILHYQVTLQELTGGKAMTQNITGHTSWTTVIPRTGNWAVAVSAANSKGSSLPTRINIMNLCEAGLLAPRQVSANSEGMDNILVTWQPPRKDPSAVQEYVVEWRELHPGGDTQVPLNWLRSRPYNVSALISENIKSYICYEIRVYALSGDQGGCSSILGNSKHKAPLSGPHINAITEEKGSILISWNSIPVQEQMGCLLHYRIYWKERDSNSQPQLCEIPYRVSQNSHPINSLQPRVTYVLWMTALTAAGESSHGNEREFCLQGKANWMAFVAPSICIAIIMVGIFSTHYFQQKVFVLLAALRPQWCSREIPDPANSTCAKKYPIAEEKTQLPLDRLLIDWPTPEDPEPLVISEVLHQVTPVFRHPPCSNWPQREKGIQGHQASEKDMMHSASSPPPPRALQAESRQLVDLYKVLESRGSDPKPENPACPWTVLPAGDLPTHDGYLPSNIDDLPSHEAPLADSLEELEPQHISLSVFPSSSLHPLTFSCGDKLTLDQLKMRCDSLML

T6: mouse IL-12Rβ2 expressed on cells (mouse, UniProt P97378 24-874)
T6 construct: the cell lines are described by plasmid or cDNA number only; also called mIL-12RB2; HEK293T transiently transfected with mouse IL-12Rβ2
T6 sequence: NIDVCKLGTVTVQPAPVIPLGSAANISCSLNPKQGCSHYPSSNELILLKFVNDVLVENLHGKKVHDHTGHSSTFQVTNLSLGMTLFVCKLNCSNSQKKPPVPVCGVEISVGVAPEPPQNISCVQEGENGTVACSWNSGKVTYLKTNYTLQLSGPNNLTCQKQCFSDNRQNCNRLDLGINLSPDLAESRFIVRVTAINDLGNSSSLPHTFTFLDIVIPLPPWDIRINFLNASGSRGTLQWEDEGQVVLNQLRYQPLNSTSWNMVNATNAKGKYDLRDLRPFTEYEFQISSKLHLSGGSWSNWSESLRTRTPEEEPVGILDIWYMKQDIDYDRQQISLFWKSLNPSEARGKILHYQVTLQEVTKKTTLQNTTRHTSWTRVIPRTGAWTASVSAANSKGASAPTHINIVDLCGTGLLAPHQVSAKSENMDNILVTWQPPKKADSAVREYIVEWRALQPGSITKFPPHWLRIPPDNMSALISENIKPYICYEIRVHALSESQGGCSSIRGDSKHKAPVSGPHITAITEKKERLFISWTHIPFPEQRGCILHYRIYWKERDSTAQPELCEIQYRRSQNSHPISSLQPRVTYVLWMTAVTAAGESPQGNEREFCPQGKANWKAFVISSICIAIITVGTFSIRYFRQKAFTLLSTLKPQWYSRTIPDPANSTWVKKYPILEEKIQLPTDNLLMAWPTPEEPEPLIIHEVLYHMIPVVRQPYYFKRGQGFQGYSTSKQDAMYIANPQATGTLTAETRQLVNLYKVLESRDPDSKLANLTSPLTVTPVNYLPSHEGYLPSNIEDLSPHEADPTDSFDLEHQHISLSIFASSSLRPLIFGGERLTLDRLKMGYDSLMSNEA

B1: anti-IL-12Rβ2 VHH clone 3CAHM11 (clone ID 21050) (VHH, not shown: small tags and cut ends)
VHH: QVQLQESGGGLVQAGGSLRLSCAASGRTFNNYAMAWFRQAPGKEREFIAAITRSDTTLYIDSVKGRFTISRDNAKNTVALQMNSLKPEDTAVYYCAAGMPYSYSDYPRDSKYDYWGRGTQVTVSS
notes: periplasmic extract
B2: anti-IL-12Rβ2 VHH clone 3CRH83 (clone ID 20390) (VHH, not shown: small tags and cut ends)
VHH: QVQLQESGGGLVQAGGSLKLSCAASGNTFSINAMAWYRQAPGQELELVAAISDVGNTIYADSMKGRFTISRGNADNTVYLQMNSLKPEDTATYYCNAGTFYTSPGDSYYRGYDFWGQGTQVTVSS
notes: periplasmic extract
B3: anti-IL-12Rβ2 VHH clone 3CAHM11 (clone ID 21050) (VHH)
VHH: B1 VHH
notes: Tested as periplasmic extract; not shown: C-terminal HA tag
B4: anti-IL-12Rβ2 VHH clone 3CRHM99 (clone ID 21062) (VHH)
VHH: QVQLQESGGGLVQPGGSLRLSCAASGISSSRLHVGWFRQSPGKEREFVAAISLSGGTQAYTDSVKGRFTISGDNVKNTAYLQMNSLRPEDTAVYYCAARERFIWTWSDLTYDYWGQGTQVTVSS
notes: as for B3
B5: anti-IL-12Rβ2 VHH clone 3CRHM73 (clone ID 21060) (VHH)
VHH: QVQLQESGGGLVQAGGSLSLSCAASGSAFRLNFMGWYRQAPGKQRELVAAINSGGTEIYHDSVKGRFTISRDNADSTVWLQMNSLKPDDTAVYYCAADRGISWSKLAGGMDYWGKGTQVTVSS
notes: as for B3
B6: anti-IL-12Rβ2 VHH clone 3CRHM14 (clone ID 21053) (VHH)
VHH: QVQLQESGGGLVQAGGSLRLSCAASGRTFSNYAMAWFRQAPGTEREFVAGLSGSGGDTEFYDDSVKGRFAISRDSAKNTVWLQMNSLKPEDTAVYYCAAATHVVVHYGLVRRRGTYDYWGQGTQVTVSS
notes: as for B3

biological target: T1, biotinylated recombinant human IL-12Rβ2; experiment: BLI, P.E., off-rate ranking

| Response | koff [s⁻¹] | Binder |
| --- | --- | --- |
| 1.4 | 0.00519 | B1 |
| 0.693 | 0.00528 | B2 |

biological target: T2, biotinylated recombinant mouse IL-12Rβ2; experiment: BLI, P.E., off-rate ranking

| Response | koff [s⁻¹] | Binder |
| --- | --- | --- |
| 1.03 | 0.00462 | B1 |
| 1.35 | 0.00722 | B2 |

biological target: T1, biotinylated recombinant human IL-12Rβ2; experiment: ELISA, P.E., biotinylated antigen

| ELISA hIL-12RB2/control | Binder |
| --- | --- |
| 3.04 | B1 |
| 8.46 | B2 |

biological target: T2, biotinylated recombinant mouse IL-12Rβ2; experiment: ELISA, P.E., biotinylated antigen

| ELISA mIL-12RB2/control | Binder |
| --- | --- |
| 38.8 | B1 |
| 14 | B2 |

biological target: T3, biotinylated human recombinant IL-12Rβ2 …; experiment: BLI (Octet Red), periplasmic extract on biotinylated human IL-12Rβ2 on streptavidin tips

| Response | Binder |
| --- | --- |
| 1.4 | B3 |
| 1.45 | B4 |
| 1.45 | B5 |
| 1.19 | B6 |

biological target: T4, biotinylated mouse recombinant IL-12Rβ2 …; experiment: BLI (Octet Red), periplasmic extract on biotinylated mouse IL-12Rβ2 on streptavidin tips

| Response | Binder |
| --- | --- |
| 1.03 | B3 |
| 0.812 | B4 |
| 0.944 | B5 |
| 0.957 | B6 |

biological target: T3, biotinylated human recombinant IL-12Rβ2 …; experiment: ELISA, periplasmic extract on biotinylated human IL-12Rβ2; signal over streptavidin control well

| hIL12RB2/control (ELISA) [ratio] | Binder |
| --- | --- |
| 3.04 | B3 |
| 4.24 | B4 |
| 6.9 | B5 |
| 3.11 | B6 |

biological target: T4, biotinylated mouse recombinant IL-12Rβ2 …; experiment: ELISA, periplasmic extract on biotinylated mouse IL-12Rβ2; signal over streptavidin control well

| mIL12RB2/control (ELISA) [ratio] | Binder |
| --- | --- |
| 38.8 | B3 |
| 5.24 | B4 |
| 26.3 | B5 |
| 25.1 | B6 |

biological target: T5, human IL-12Rβ2 expressed on cells; experiment: flow cytometry, periplasmic extract VHH-HA on HEK293T cells transiently expressing human IL-12Rβ2

| % cells bound [%] | dMFI | Binder |
| --- | --- | --- |
| 37.6 | 684 | B3 |
| 24.4 | 458 | B4 |
| 19.5 | 297 | B5 |
| 35.8 | 589 | B6 |

biological target: T6, mouse IL-12Rβ2 expressed on cells; experiment: flow cytometry, periplasmic extract VHH-HA on HEK293T cells transiently expressing mouse IL-12Rβ2

| % cells bound [%] | dMFI | Binder |
| --- | --- | --- |
| 7.51 | 194 | B3 |
| 10.7 | 251 | B4 |
| 10.4 | 257 | B5 |
| 18.6 | 312 | B6 |

biological target: T3, biotinylated human recombinant IL-12Rβ2 …; experiment: BLI (Octet Red), periplasmic extract on biotinylated human IL-12Rβ2 on streptavidin tips, 1:1 model

| koff [s⁻¹] | Binder |
| --- | --- |
| 0.00519 | B3 |
| 0.00634 | B4 |
| 0.00605 | B5 |
| 0.00532 | B6 |

biological target: T4, biotinylated mouse recombinant IL-12Rβ2 …; experiment: BLI (Octet Red), periplasmic extract on biotinylated mouse IL-12Rβ2 on streptavidin tips, 1:1 model

| koff [s⁻¹] | Binder |
| --- | --- |
| 0.00462 | B3 |
| 0.00671 | B4 |
| 0.00605 | B5 |
| 0.00483 | B6 |
